Source: patent US20170166631A1

B1: NI-302.15F9 (antibody, human IgG1, V domains shown)
VH: EVQLVESGGGLVTPGGSLRLSCEASGFLFKNSSMNWVRQTPGKGLEWVSSIDTSATNYKYYADSVKGRFTISRDDATNSLYLQMNSLRADDTATYYCARGYYTPRDFDYWGQGTLVTVSS
VL: DVVMTQSPQTLSVSLGQAASISCRSSQSLLYRDNNTYLNWFHQRPGQSPRRLIYRASDRDSGVPDRFSGGGSGTDFTLKISGVEAEDVGTYYCMQGTHWPRTFGQGTKVEIK
B2: NI-302.4A6 (protein)
chain 1: EVQLVESGGGLVQPGGSLRLSCAASGFTFSAYAMSWVRQAPGKGLEWVSTISGSGGSTYYADSVKGRFSISRDNSKNTLYLQMNSLRAEDTAVYFCAKVTTELYGANSYYYYMDVWGKGTTVTVSS
chain 2: EIVLTQSPGTLSLSPGERATLSCRASQSVVSRYLAWYQQKPGQAPRLLIYGASSRATGIPDRFSGSGSGTDFTLTISRLEPEDFAMYYCQLYGNSQTFGQGTKVEIK
B3: NI-302.8M1 (protein)
chain 1: EVQLVQSGAEVKKPGASVKVSCKASGYTFTIYYMHWVRQAPGQGLEWMGGISPSGAHTMYAQNFQGRVTVTRDTSTSTVYMELSSLRSEDTAVYYCARGSTVTNYRPFDYWGQGTLVTVSS
chain 2: DIQMTQSPSSLSASVGDRVTITCRASQDISNYLAWYQQKPGKVPKLLIFAASTLQSGVPSRFGGSGSGTDFTLTISSLQPEDVATYYCQNYNSGPPPFGPGTKVDIK
B4: NI-302.12H2 (protein)
chain 1: EVQLVQSGGGLVQPGGSLRLSCEASGFTFSNYAMGWVRQAPGKGLEWVSVISGTGGSTYYADSVKGRFTISRDNSMNTLYLQMNSPRADDTAVYYCAKDLRKISGPLYYYGMDVWGQGTTVTVSS
chain 2: EIVLTQSPGTLSLSPGERATLSCRASQSVSSGYLAWYQQKPGQAPRLLIYGASTRATGIPDRFSGSGSGTDFTLTISRLEPEDFAVYYCQHYGASSYTFGQGTKLEIK

Key:
[1] = target: all four species (aggregated HD49, aggregated HD21, soluble GST-HD49 and GST-HD21); experiment: direct ELISA, antigen coated at 5 ug/ml
[2] = target: T1, HD21 (huntingtin exon 1 protein with 21 polyQ repeats after cleavage of the GST tag; aggregation reaction) (human), P42858; experiment: ELISA; details: chains VH:VL; remark: other sources report otherwise
T1 chain: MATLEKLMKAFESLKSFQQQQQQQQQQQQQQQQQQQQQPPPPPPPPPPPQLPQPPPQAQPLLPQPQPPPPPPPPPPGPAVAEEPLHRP

| Binder | EC50 [1] [nM] | EC50 [2] [nM] |
| --- | --- | --- |
| B1 | 5 to 35 |  |
| B2 |  | 3 |
| B3 |  | 0.002 |
| B4 |  | 0.05 |
